The nature of this data set: label from the status in PepcDB records.

“MNAAVVRRTQEALGKVIRRPPLTEKLLSKPPFRYLHDIITEVIRMTGFMKGLYTDAEMKSDNVKDKDAKISFLQKAIDVVVMVSGEPLLAKPARIVAGHEPERTNELLQIIGKCCLNKLSSDDAVRRVLAGEK”: the protein production entry is on record as “not failed”. The entry for “MNAINTKVTPTKRKQVALFSSDPNFKRDVATRLDALAIYDVRVSETDDFLKGPPADTRPGIVILDLGGGDLLGKPGIVEARALWATVPLIAVSDELTSEQTRVLVRMNASDWLHKPLDGKELLNAVTFHDTGNQ” is “not failed”; for “MNAIPRVALVWLLVAQVLVILPHLAYMPLWIAAMWLGCAAWRVQVFRMRAGYPRAWVKLALALLAGAGVWLSRGSLVGLDAGAVLLIAAFILKLVEMKTRRDALVLVFLGFFAVVVGYLFDDGFLAALYSLLPVTALLAALIGLQQSAFASRPWPTLRLAGGLLLQALPLMLLLFLFFPRLGPLWSLPMPGNKGVTGLSESMAPGDIAELGRSAELAFRVRFEGALPPREQLYWRALTMERFDGRRWAQAPQWSGEDALHWQKRGPELRYDVIMQPSSQPWLFALDVAQTDQTDTRLMSDFHLQRRQPVEQRLFYRVSSWPQALRESSIDPRTRWRNLQLPMHGNPRARALADELRQAHAQPQALVAALLQRFNHEPFAYTLKPPATGADGVDDFLFDTRSGFCAHYAGAMAFVLRAAGIPARVVAGYQGGELNPAGNYLLVHQFDAHAWVEYWQPEQGWLSVDPTYQVAPERIEQGLEQALAGDSEYLADAPLSPLRYRGLPWLNDMRLAWDSLNYGWQRWVLAYQGEQQGAFLQRWFGGLDPTRLGLLLGAAAILSVGLLALFLLKPWQGRGDLRSRQLRRFERLLEMHGLRRSPGEGLRSYGERAARVLPAQAPAIAAFVGAFEAQRYGHGGADDPGLRLRALRRALPWRLVRTPTRDGRGEEQA” it is “failed”.

For the sequence “MNALVAHNSEAWDKKVETGNEWTVAVEQQVIEQAKKGNWDIRVTPMKDVPKDWFPPIKGLKVLCLASGGGQQGPVLAAAGADVTVLDNSEKQLNQDRMIAERDGLTIHTVKGSMDDLSVFNDESFDVIVHPVANVFVENVLPVWKEAYRVLKRNGILISGFVNPVVFLFDTVLEQQGVLKVKHSIPYADPEDLPKHKVKELIENNEALEFGHSLEDQIKGQIDAGFIVTGFYEDKGGFVLDQYIHTYSATRSVKVLEHHHHHH”, the protein production result was “not failed”. For the sequence “MNANIMLNEDITPIGSDYDTVRGVIELLTLDYREQPSLEAIAARLGQSPTQLQKTFTRWAGLSPKAFLQAVTLDHAKRLLREEDLPLLETSIEVGMSGPGRLHDLFVTHEAMSPGEWKAKGGGLTIRYGFHASPFGLALVMITDRGLAGCAFADPGDERACFEDMAGRWPNADYVEDREATAPYAARIFEPAMWTADKPLRVVLLGTDFQVRVWKSLLKIPMGRAVTYSNIACDIGQPTASRAVGAAVGANPVSFVVPCHRAVGKSGALTGYHWGLTRKRAMLGWETGKALEHHHHHH”, the protein production entry was “failed”. In the case of “MNARDNKFNTWNDSRGNYWSDYEGSDENGDGIGDSAYAVNPEAGSMDYMPLMEYLHSSPVLPTARFTSDITEGFAPLSVRFKDFSENATSRLWMFGDGNTSDSPSPLHTFFNEGEYIVSLIVSNENDSDSASVTIRALEHHHHHH”, the protein production result is “not failed”. Under “MNASAVETIYESTEDKAALTSVVDLVKLSDQYRQSAILHYAVADKLFDLTQTGRTPAEVAASFGMVEGKAAILLHALAALGLLTKEGDAFRNTALTERYLTTTSADYIGPIVEHQYLQWDNWPRLGEILRSEKPLAFQQESRFAHDTRARDAFNDAMVRLSQPMVDVVSELGVFARARTVIDLAGGHGTYLAQVLRRHPQLTGQIWDLPTTRDAARKTIHAHDLGGRVEFFEKNLLDARNFEGGAADVVMLNDCLHYFDAREAREVIGHAAGLVKPGGALLILTMTMNDDRVTPALSADFSLHMMVNTNHGELHPTPWIAGVVRDAGLAVGERSIGRYTLLIGQRSSGEV” stands “not failed”. The entry for “MNASLTPDQVSKKLKQFFSDHLPISQFMGLEIESYDGDTLILTAPLEPNINDKQTAFGGSLYNAAVMACWGMVYLKTQEENIACNQVVTEGNMKYIAPVYGRIRAICHAPDEEELANFFDHFERKGKARISLEAAIYNDACVMKIEPETKPSVKFNGQYAILKNQ” is “not failed”; for “MNAWNTIYDQFNPIAFSLGSIEVHWYGLAYACAIVTAFYMALRMIQKDPKRFPIERKEFESYFLWAELGIVLGARIGYILIYEPNSGYYLTHFWQIFNPFDSHGNFVGIRGMSYHGGLVGFLIASYLYSRKDLKKLLIYLDLIAISLPLGYVFGRIGNFLNQELVGRIVPKDSHLGQIIGIMVDNELRYPSQLIEAFLEGVIVFLMVMWAKKHTKTHGLLIVVYGLGYSLMRFIAEFYREPDSQMGVYFLNLSMGQILSLFMVIVSLGILLYATKNSKKIKENQ” it is “failed”. The entry for “MNDDSQDKIIHDIRIQLRKAATELSRWKLYGSSKWAAEALAGLAEAIDVDQTHSLADESPLRNKQGVPKQMFEIPQNGFGLSETEYDLYLLGSTLFDAKEFDRCVFFLKDVTNPYLKFLKLYSKFLSWDKKSQESMENILTTGKFTDEMYRANKDGDGSGNEDINQSGHQRANLKMVSNEHESQSNISSILKEINTFLESYEIKIDDDEADLGLALLYYLRGVILKQEKNISKAMSSFLKSLSCYSFNWSCWLELMDCLQKVDDALLLNNYLYQNFQFKFSENLGSQRTIEFNIMIKFFKLKVFEELNGQLEDYFEDLEFLLQVFPNFTFLKAYNATISYNNLDYVTAESRFDDIVKQDPYRLNDLETYSNILYVMQKNSKLAYLAQFVSQIDRFRPETCCIIANYYSARQEHEKSIMYFRRALTLDKKTTNAWTLMGHEFVELSNSHAAIECYRRAVDICPRDFKAWFGLGQAYALLDMHLYSLYYFQKACTLKPWDRRIWQVLGECYSKTGNKVEAIKCYKRSIKASQTVDQNTSIYYRLAQLYEELEDLQECKKFMMKCVDVEELLEGIVTDETVKARLWLAIFEIKAGNYQLAYDYAMGVSSGTSQEIEEARMLARECRRHM” is “failed”; for “MNDGKATPGEAGCRENQLLKLPGFGNFTIIDRYIARQFLTIFLFALASFAALFILINLVENLDRFLDRHISFGRILIYYLSGLPDTFLLTSPLSVLLASLFVTGKLSMQSELPALKSAGMSLSRLMKPFLLVTMAIAALNTINSCFIAPAMYDWSKGFEKRYLKKQQDNGEEPLHIRESNNRILTVAKIGPDKKSATTVSLETFNGSQIVSRIDADSLRIITRHKYWIFYNTKQRTFSKGAETLVTRAGADTLKLSLAPNTFKMIDTDPDEMNIVQHIDFIWQKARSGLPGLERATVKLHTKLALPLASMIIVLIGVPLSSKKKRSGLAVEISISLLIGLLYLGMLKTIGSLGYDGLLNPVLAAWLPDILFIIAGTFLYRSADH” it is “failed”; for “MNDGRMLGLFTFIIMIISIISQIIALSASQRNIYLGIRIPQEEINNTKIKAIGKRYIWSNLLLGIPIAALLSYCVYKINNDILYLAAIILFMAISFLLYYYYNRKILKIKKEEGWLKTKKQEIVIDTSFAKRKSERMVAGSRWFLLSLIFIVICLIVNVKQYPNIPYRYPTHWDINGRPNAYSLKSYMTIFSMPINQLILIAVMFFSYKITFWSKNELDGRNPKDSGERNIKFRNVWAIYAIVVNFFLQIIFLIQDFQIMHIVNTNPKFIIIAVITMTIVVICSSLIISIKVGQGGSRLKTRGNKSEFGINMRDDDKYWRLGNLFYCNKNDPSIFVQKRFGIGWTVNVGNKFGVLFYVLIIVFLIICIAISR” it is “failed”. For “MNDILQLTIVLIASLIATLVSRRLKIPAVVGQMLVGILIAPSVLGLVHSGHVLEVMSEIGVILLMFLAGIESDLTVLKKNFKASMLVAVGGVIVPLIAFGLVAFGFGYGISTSFFYGIVFAATSVSITVEVLQEYGKLSTRAGSIILGAAVVDDILAVLILSIFTSFKNGGSGSHLFIQFLLELLFFAFLFLVHKLIPRFWKFVQKLPIANKNTIVALIICLGLSLLADSVGMSAVIGSFFAGLAISQTEVSHKIEEYTSAIGYVIFIPVFFVLIAISVQFDSLIHHPWIILLFTFLAILTKFIPAYFVGKASKLSTGESMLIGTGMISRGEMALIVAQIGLTSAIITDEVYSELVIVIILATVLAPFLIKMVLKKYDN”, the protein production result is “failed”. Under “MNDLSQWSISKDSNLDSPWIEGIPGCGIPGAGSLVEHIDRQILVLQRDGRYIVGLLRSYDQYANLVLENTFERFVLNDSYCDEPLGVFIIRGENVALLGEVDGEKESQWLSHLHTVSLEDTKKTIRGKRQATKALLHSQPERVEWTFYDDAFF” stands “not failed”. Under “MNDRACVSARTRWPLVSVLIPAFNHARFVQRCLDSVLEDPYPCKEIVIIDDGSRDATGEKISQWISDHGHRLPVHFVQRENRGVAATLNELALRARGEYLRLGASDDYLLPGGLDAQVRYLRGHPQKLAVIGDACVVDAHGQLMHASAMRDLHRVDKDLYRSESGIRHAVIRQWAVSGAVALLRRSALDARSRWDESLRIEDWDFFLRLVAGNALGFIDLPVCAYRLHGNNLSKTADVPARIANLCESRQVALRCAPLFDEPDRMLLHAQARYIAAKVEFLRRRPHRIAMHLAVYAGLSLSARWRPKRVARAAELA” stands “failed”; under “MNDRKILVAYFSCSGVTKAVAEKLAAITGADLYEIKPEVPYTEADLDWNDKKSRSSVEMRDALSRPAISGTLFHPEKYEVLFVGFPVWWYIAPTIINTFLESYDFAGKIVVPFATSGGSGIGNCEKNLHKAYPDIVWKDGKLLNGQITRDLVTEWFEKIRL”, “not failed”. Under “MNDSIKKINYLFICLFIFLNPLIPYNVKIHNNITVSDILLLVIFVLFLVEILRNRQKLKECFYIMLGDKTLFCLILLFIVMMISVTYAKEKPLALEESLRFFCYIGLYIILSLSYREEKHFKGFVTSFVASVTLISIIGIFQKITGMGIPHQYDYKVNGVTMVRVAAVFGNPNTLAAFMILSIFPIVMFAFFEKNLKKKAFYSILSVLIVYNAALTGSRNSYMGLALGFCVLALIYSIKLILPIIVLGGASMFLPQVTSRLRSIDNKNLNDARIKLWKTALKMIKDHPLSGVGNGNYIANYDAYVKQYPELRYADYSRFPVHNSYLKIESELGIFGGIFFVATIVNVFLKLYNTYKKTDIKIKKAFYLGFIASTSAFLFMNFSDNLLFVPSITSFFWMFVAIGDRH” stands “failed”; under “MNDTLLNAYSGIKTHQFGIDSLSNNIANVNTLGYRSNDPEFKTLFSSHLDALNAKSVVANDRNYGVTGSGNVLSNKDGEYMPSEGEFHMAYQGKGWFVIGPNKNGEITINKDGFSKKQDNFLTRAGNFARDADGYLVTPEGYYVYGIDLKKIKDGTLNSTARDEDIEKLHGNTLSPLQIPQDLTYQPVLSTKVNISVNLNPKDHLKGVQDFFLNDKGEIIKERFLNQDINALANNDNEPIDAITNRKLNISIQKEDGKKEDFVFTYGDAEKGENQFKTLGDLQKLLKEKTGLDLNLIKSEKDAKSPPLLLEIANPSQTPITFSLSGGIADKLGLKADGMELKKGISRDSVAIKIPYYSTEVDIYDKAGDKYLLQSEYYMTNSNDPTSSPTSKRKNQTWEVKSYIADPKNKTPINDPTWEIVGFDSATHKMKSAPMTLDFKGNKLTYSLDKSENHDSSDLSYQDSKLLEASQDGKPRGIFRDMRIEENGVISLAFSNGVVEPVARIGILAFTNDQGLRKIGGNLYEMQEGTINGENRPLSGNPILGWDEEGKLKFGKIRHKYLETSNVNAGNALTNLILMQRGYSMNARAFGAGDDMIKEAISLKK”, “failed”. For the sequence “MNEIHQPLARRVWRSNVDEEMARMAECLKRFPLIAFDTEYPGIIFRTYFDSSSDECYRAMKGNVENTKLIQCGFTLFNAKGEIGGVWEINFSNFGDPSDTRNELSIEFLRRHGLDLQKIRDEGVDMFGYGFFPKLMTVFRSQKHVEFVTFQGAYDFAYFLSILNHGKLPETHGEFATEVVKVFGQVYDTKVMAGFCEGLGEHLGLSKLAQLLQITRVGRAHHAGSDSLMTALVFIKLKHVYEDSRFARGLIYGIGKSNLVAAPAPAPVPEPTLPLMCQQNVASYPVFHNGYVQNYEQPQLVSYDPSGAPWAFCNATGTYVQLTHLPASTFAYPSQTPSATVDYLGPVPNYYNNNACYVVE”, the protein production result is listed as “failed”.

The record behind these values is a protein production outcome set (Wang et al. 2014).
